{"source": "patent US5403737A", "about": "“Serine protease variants having peptide ligase activity” (priority 1993, dated 1995)", "molecules": {"B1": {"name": "wild type: wild type subtilisin (BPN') from Bacillus amyloliquefaciens (protein, UniProt P00782 108-382, looked up)", "Subtilisin BPN'": "AQSVPYGVSQIKAPALHSQGYTGSNVKVAVIDSGIDSSHPDLKVAGGASMVPSETNPFQDNNSHGTHVAGTVAALNNSIGVLGVAPSASLYAVKVLGADGSGQYSWIINGIEWAIANNMDVINMSLGGPSGSAALKAAVDKAVASGVVVVAAAGNEGTSGSSSTVGYPGKYPSVIAVGAVDSSNQRASFSSVGPELDVMAPGVSIQSTLPGNKYGAYNGTSMASPHVAGAAALILSKHPNWTNTQVRSSLENTTTKLGDSFYYGKGLINVQAAAQ"}}, "assay": "Esterase activity: hydrolysis of an activated ester substrate (Table III)", "assay_type": "biochemical", "conditions": "ratio of the apparent second order rate constants (kcat/KM), Sbz versus pNA substrate", "protocol": "Table III: Kinetic constants for the hydrolysis of an amide substrate (s-Ala-Ala-Pro-Phe-pNA) and for an activated ester substrate (s-Ala-Ala-Pro-Phe-Sbz). The ratio of esterase to amidase activities is the ratio of the apparent second order rate constants (kcat/KM). The aminolysis to hydrolysis ratio was investigated using the thiobenzyl ester substrate with 3.6 mM of the dipeptide Ala-Phe-amide as the nucleophile.\nKinetic Assays. The esterase and amidase activities were obtained from initial rate measurements using a Kontron Uvikon 860 spectrophotometer. The assay for esterase activity utilized the substrate s-Ala-Ala-Pro-Phe-Sbz at (25°±0.2° C.) in 100 mM Tris-HCl (pH 8.60), 4% (v/v) dimethylsulfoxide, 0.005% (v/v) Tween 80. With the non-cysteine containing proteases, DTNB (Ellman (1959), Arch. Biochem. Biophys., 82, 70-77) was added to a concentration of 37.5 μM to visualize the release of thiolbenzoate upon hydrolysis of the substrate. […] The amidase activities were measured under identical conditions by following the increase in absorbance at 412 nm upon hydrolysis of p-nitroanilide from s-Ala-Ala-Pro-Phe-pNA.", "data": [{"molecule": "B1", "values": [{"measurement": "esterase/amidase", "result": 4.8}]}]}
